Measurements: the supplement of paper PMC10567573
± gives the standard deviation.

Test: protein stability index of a GFP-peptide fusion (GPS, HEK-293T) (PSI 1-6); higher = more stable
Conditions: c terminus: a fixed tail appended
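Also: 24-mer peptide tiles fused after GFP, lentivirally expressed, FACS-sorted into six equal bins by GFP/DsRed ratio, decoded by Illumina sequencing, PSI is the read-weighted mean bin number.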

Sequence | protein stability index (treatment: DMSO) | protein stability index (treatment: MLN4924 1 uM, 8 h)
LSDVQNPAISITENVLHFKAQGHG [HACD3] | 4.13 ± 0.19 | 4.28 ± 0.15
VFDLRMMVANILNNEAFMNQEITK [RHOBTB2] | 2.72 ± 0.47 | 2.43 ± 0.46
RVQKTSKELEDMNQKLFDLRGKFK [TNNI2] | 3.94 ± 0.25 | 4.03 ± 0.3
KPLLGSAVLGLLLVLAAVVAWCYY [MYORG] | 2.11 ± 0.4 | 2.25 ± 0.24
GRSGWPAGGAPGSPIPSPPGPGDD [HES6] | 5.2 ± 0.21 | 5.25 ± 0.093
IATGPFVAFGIEADDESLLRTSNG [DNAAF3] | 3.9 ± 0.16 | 4.01 ± 0.22
PAAPGAGGGSGSAPGPSRIADYLL [TRIB1] | 4.02 ± 0.68 | 4.14 ± 0.21
IPSWQIRTVKLIRYVSNWDFFIVG [PKD2L1] | 2.79 ± 0.52 | 2.93 ± 0.7
NMLKNIELFDKLSLRFNGRVLFIK [KCTD10] | 2.68 ± 0.48 | 2.43 ± 0.35
FVVTMLKLIQKKLLDKTCDQVMEF [ZER1] | 3.14 ± 0.39 | 3.15 ± 0.32
MLELRHRGSCPGPREAVSPPHREG [CDS1] | 4.26 ± 0.29 | 4.39 ± 0.29
GRGAFGEVRLVQKKDTGHIYAMKI [STK38L] | 2.09 ± 0.25 | 2.43 ± 0.49
DLVFVIDGSKSLGEENFEVVKQFV [MATN2] | 2.38 ± 0.35 | 2.44 ± 0.49
LDMELGPSQGQETNEVCEQAGGGA [ADAMTSL2] | 5.33 ± 0.52 | 5.27 ± 0.54
EVREARDHKEPKEEINKNISDFGR [EHMT1] | 5.18 ± 0.26 | 5.28 ± 0.17
ENEEMEQPMQNGEEDRPLGGGEGH [BEX3] | 5.42 ± 0.15 | 5.41 ± 0.2
WLPYLYTLQGLYLVYHPVQLSTPH [DHCR7] | 3 ± 0.25 | 2.91 ± 0.34
AGPGAPEPLAEGAAAEFSSLLRRI [SLC35F2] | 3.9 ± 0.32 | 3.77 ± 0.46
TFLSRILTGLNYEAPKYHIPYWVA [NSDHL] | 2.77 ± 0.67 | 3 ± 0.63
DGRFEKRQGNPSWKKQQKCDECGK [ZNF396] | 5.03 ± 0.2 | 5.2 ± 0.11
FPWIDAIMTQLRQEGWIHHLARHA [CRY1] | 2.5 ± 0.46 | 2.96 ± 0.8
VSSVFLLTLSIAFICCAQVKVSHL [PHTF1] | 3.57 ± 0.43 | 3.02 ± 0.58
KYVVSGFDVDHGICIMDAENITTV [WDR88] | 2.28 ± 0.32 | 2.25 ± 0.25

Sequence | protein stability index (treatment: DMSO) | protein stability index (treatment: MLN4924 1 uM, 8 h)
VPDVKEMEKSSFTEYIESPDVENE [TAF7L] | 5.59 ± 0.17 | 5.61 ± 0.23
LQSGQEYVFFVLAVMEHAESKMYA [PTPRD] | 2.4 ± 0.63 | 2.51 ± 0.75
SAVVQLYAADRNCMWSKKCSGVAC [WASL] | 2.36 ± 0.23 | 2.41 ± 0.42
VGKGEILESLQDGAAESPYAYSNG [RAB40C] | 4.88 ± 0.24 | 4.79 ± 0.2
HEALSRLWELCHLWLRPEVHTKEQ [ZNF396] | 2.11 ± 0.45 | 2.4 ± 0.14
EKSHQVLAQLLDTLLAIGTKLPEN [INTS4] | 3.14 ± 0.82 | 3.2 ± 0.86
KNKPKKMGHIKPDLIDVDLIRGST [PHTF1] | 3.8 ± 0.28 | 4.04 ± 0.2
GPSLPSKRESPGVGGGSGDEASAA [ZBTB22] | 5.5 ± 0.34 | 5.64 ± 0.48
AILMKAYQRFRQKSKASFLLLASG [PTGFR] | 3.41 ± 0.86 | 2.83 ± 0.41
LCKNCFYLSNARPDNWFCYPCIPN [ZMYND11] | 2.2 ± 0.29 | 2.23 ± 0.053
RHTLQKLTCEFNNNHESLDEELHL [FBXO39] | 4.38 ± 0.21 | 4.56 ± 0.3
DLKQALPCVAESPTVHVEVHQRGS [TRIP13] | 4.51 ± 0.31 | 4.57 ± 0.11
LETRFKIQQLLEPQQYMAFLPHHI [FBXO34] | 2.36 ± 0.49 | 2.27 ± 0.33
TERDEIEDVKCQEDQKLQVLLTQI [TRIM15] | 4.34 ± 0.2 | 4.54 ± 0.12
LLVQDATPVSNSLLPEKAFSDIPS [GFOD1] | 3.35 ± 0.24 | 3.37 ± 0.22
GPIGGMMPPQPGIPQQQGMRPPMP [ZNF207] | 4.35 ± 0.3 | 4.36 ± 0.27
MSHAAEPARDGVEASAEGPRAVFV [TFE3] | 4.62 ± 0.13 | 4.86 ± 0.09
ANNRILAERIAKEIQVIPLQRDDE [IMPA1] | 4.17 ± 0.38 | 4.04 ± 0.068
TPGIDLTRVLAEMREQYEAMAERN [KRT13] | 4.13 ± 0.49 | 4.4 ± 0.32
QIEEVFISEEIQMSTKESDFLCLL [MIA2] | 2.51 ± 0.42 | 2.49 ± 0.37
DIYILPSDNSGQVSPPESPTVTTS [BCL2L13] | 4.58 ± 0.27 | 4.5 ± 0.15
IRERPAAIPIEIKSIDDTSNFDDF [STK38L] | 4.31 ± 0.3 | 4.92 ± 0.19
